Laboratory results from patent US20100291638.

Tests used:
[1] = tested on: T1, DNA polymerase clone 1128 (uncultured hot spring virus (Great Boiling Spring)); details: dNTP incorporation; background <500
T1 sequence: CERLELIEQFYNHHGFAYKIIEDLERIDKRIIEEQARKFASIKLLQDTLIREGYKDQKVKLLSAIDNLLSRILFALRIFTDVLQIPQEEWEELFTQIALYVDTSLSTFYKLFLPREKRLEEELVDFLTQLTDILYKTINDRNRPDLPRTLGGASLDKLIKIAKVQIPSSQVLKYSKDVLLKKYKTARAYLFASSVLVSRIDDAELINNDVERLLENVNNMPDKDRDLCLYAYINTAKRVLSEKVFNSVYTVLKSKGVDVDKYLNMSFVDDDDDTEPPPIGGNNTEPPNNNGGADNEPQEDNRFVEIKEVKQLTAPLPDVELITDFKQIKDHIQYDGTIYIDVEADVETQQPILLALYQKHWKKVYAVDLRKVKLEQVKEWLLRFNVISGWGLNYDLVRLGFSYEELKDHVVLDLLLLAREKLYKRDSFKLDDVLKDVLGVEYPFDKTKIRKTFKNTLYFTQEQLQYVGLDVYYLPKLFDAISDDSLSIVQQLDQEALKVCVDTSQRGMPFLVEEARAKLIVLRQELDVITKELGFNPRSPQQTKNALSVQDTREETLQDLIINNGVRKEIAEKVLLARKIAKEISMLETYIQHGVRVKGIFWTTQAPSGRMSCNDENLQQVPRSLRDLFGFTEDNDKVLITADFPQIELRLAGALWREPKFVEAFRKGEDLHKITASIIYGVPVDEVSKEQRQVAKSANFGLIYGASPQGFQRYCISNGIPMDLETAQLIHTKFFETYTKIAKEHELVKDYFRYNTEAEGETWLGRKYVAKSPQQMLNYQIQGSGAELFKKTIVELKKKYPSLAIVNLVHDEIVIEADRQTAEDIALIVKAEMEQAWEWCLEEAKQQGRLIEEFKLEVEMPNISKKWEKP

[2] = tested on: T2, DNA polymerase clone 1753 (uncultured hot spring virus (Great Boiling Spring)); details: dNTP incorporation; background <500
T2 sequence: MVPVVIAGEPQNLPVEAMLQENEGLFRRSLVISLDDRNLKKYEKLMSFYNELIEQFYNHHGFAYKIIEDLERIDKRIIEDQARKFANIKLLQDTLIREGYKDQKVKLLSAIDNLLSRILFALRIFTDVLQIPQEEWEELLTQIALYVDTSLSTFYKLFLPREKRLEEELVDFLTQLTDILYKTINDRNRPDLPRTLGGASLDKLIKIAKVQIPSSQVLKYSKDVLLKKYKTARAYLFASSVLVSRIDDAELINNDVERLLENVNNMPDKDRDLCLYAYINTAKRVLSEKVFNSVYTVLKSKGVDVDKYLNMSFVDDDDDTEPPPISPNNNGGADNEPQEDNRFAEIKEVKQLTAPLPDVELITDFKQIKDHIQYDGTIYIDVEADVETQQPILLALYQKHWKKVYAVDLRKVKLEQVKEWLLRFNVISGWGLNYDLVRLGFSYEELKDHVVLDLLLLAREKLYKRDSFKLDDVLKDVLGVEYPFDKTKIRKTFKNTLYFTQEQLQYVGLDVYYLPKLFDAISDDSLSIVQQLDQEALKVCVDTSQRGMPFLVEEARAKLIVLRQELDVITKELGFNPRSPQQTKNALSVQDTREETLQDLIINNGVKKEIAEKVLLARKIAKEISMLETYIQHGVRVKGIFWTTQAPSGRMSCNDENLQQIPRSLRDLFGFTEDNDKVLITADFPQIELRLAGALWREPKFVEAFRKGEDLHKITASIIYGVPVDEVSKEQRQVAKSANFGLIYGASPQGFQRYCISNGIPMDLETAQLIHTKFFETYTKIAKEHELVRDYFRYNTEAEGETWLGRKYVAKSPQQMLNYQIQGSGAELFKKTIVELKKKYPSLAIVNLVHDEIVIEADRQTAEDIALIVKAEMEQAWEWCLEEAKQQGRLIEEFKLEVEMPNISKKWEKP

[3] = tested on: T3, DNA polymerase clone 2783GBS (uncultured hot spring virus (Great Boiling Spring)); details: dNTP incorporation; background <500
T3 sequence: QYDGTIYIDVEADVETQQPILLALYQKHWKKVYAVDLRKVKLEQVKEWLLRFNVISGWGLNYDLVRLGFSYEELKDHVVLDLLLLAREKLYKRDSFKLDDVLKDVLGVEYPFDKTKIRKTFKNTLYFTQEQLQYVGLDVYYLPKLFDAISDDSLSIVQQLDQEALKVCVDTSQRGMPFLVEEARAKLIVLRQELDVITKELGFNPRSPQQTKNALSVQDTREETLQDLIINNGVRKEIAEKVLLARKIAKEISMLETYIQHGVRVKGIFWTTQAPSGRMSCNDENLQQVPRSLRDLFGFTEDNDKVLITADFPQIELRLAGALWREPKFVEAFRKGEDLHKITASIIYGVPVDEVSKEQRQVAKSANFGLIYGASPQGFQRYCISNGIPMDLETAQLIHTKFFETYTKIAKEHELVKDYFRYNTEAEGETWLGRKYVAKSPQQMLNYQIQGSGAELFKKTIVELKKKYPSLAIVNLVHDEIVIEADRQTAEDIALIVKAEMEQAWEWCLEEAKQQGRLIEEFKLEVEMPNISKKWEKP

[4] = tested on: T4, DNA polymerase 3173 (uncultured hot spring virus (Octopus Spring)); details: dNTP incorporation, 60 C, 2 mM MgSO4; background <100 cpm
T4 sequence: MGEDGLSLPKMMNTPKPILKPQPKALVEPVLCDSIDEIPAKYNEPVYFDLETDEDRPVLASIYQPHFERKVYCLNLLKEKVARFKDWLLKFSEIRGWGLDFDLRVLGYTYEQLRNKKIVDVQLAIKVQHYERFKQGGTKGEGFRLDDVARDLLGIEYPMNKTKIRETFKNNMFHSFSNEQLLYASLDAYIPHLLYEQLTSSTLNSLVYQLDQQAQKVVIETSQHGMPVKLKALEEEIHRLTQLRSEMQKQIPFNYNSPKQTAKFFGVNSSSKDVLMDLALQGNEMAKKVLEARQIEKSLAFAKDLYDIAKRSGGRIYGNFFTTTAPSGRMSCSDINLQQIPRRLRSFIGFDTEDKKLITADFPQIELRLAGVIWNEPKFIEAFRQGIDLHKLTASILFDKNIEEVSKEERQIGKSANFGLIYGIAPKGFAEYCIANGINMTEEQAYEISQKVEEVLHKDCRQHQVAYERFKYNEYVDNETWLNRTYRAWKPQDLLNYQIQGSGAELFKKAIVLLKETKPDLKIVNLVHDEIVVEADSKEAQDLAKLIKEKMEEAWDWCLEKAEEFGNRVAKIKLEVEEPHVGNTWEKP

activated calf thymus DNA
activity [1]: 16400 cpm
activity [2]: 141000 cpm
activity [3]: 11500 cpm
activity [4]: > 1000 cpm
